Measured values from paper PMC2997670 (The Biochemical journal, 2010).

Molecular target: the molecule itself
Test: SEC + SEC-MALS

B1: ECM4 (extracellular mutant 4) of Saccharomyces cerevisiae (enzyme, S. cerevisiae, UniProt P36156 1-370, looked up)
chain: MSKQWASGTNGAFKRQVSSFRETISKQHPIYKPAKGRYWLYVSLACPWAHRTLITRALKGLTSVIGCSVVHWHLDEKGWRFLDMEKQLEDSEDFLEHWHDVAGGIRTAKEDSSKSFAEIKNDSQRFMVDATNEPHYGYKRISDLYYKSDPQYSARFTVPVLWDLETQTIVNNESSEIIRILNSSAFDEFVDDDHKKTDLVPAQLKTQIDDFNSWVYDSINNGVYKTGFAEKAEVYESEVNNVFEHLDKVEKILSDKYSKLKAKYGEEDRQKILGEFFTVGDQLTEADIRLYTTVIRFDPVYVQHFKCNFTSIRAGYPFIHLWVRNLYWNYDAFRYTTDFDHIKLHYTRSHTRINPLGITPLGPKPDIRPL
- stoichiometry N: 2

B2: PcpF, S-glutathionyl-(chloro)hydroquinone reductase of Sphingobium chlorophenolicum ATCC 39723 (enzyme, UniProt Q8KN33 1-313, looked up)
chain: MGLLIDGVWRDAWYDTKSSGGRFVRKESQYRGGLDAGFRGEPGRYHLYAGFACPWAHRVLIMRALKGLEEMISVSMVNAYMGENGWTFLPGDDVVPDSINGADYLYQVYTAADPTYTGRVTIPILWDKVEKRILNNESSEIIRILNSAFDDVGALPGDYYPAEFRPEIDRINARVYETLNNGVYRSGFATTQEAYEEAFYPLFDTLDWLEEHLTGREWLVGDRLTEADIRLFPTLVRFDAIYHGHFKCNLRRIADYPNLSRLVGKLASHERVAPTINLRHAKAHYYGSHPSVNPTGIVPVGPAQPLPGLTLQS
- stoichiometry N: 2
